Experimental data as given in US9884910B2, “Anti-PDGF-C antibodies” (ThromboGenics NV, priority 2012, dated 2018).

B1: 29H1: murine monoclonal anti-PDGF-C antibody, IgG1 κ; VL SEQ ID NO:17, VH SEQ ID NO:21 (antibody, listed as Mus musculus, V domains shown)
VH: EVQLVESGGDLVKPGGSLKLSCAASGFTFSNYGMSWVRQTPDKRLEWVATIGSGGHYTYYPDSVKGRFTISRDSAKSTLYLQMSSLRSDDTAIYYCARQAPLWDCSDYWGQGTTLTVSS
VL: DVLMTQTPLSLPVSLGDQASISCRSNQSIVHSNGDTYLEWYLQKPGQSPNLLIYKVSNRFSGVPDRFSGSGSGTDFTLKISRVEAEDLGVYYCFQGSHVPPTFGGGTKLEIK
B2: Humanized mAb 29H1: humanized 29H1; VH SEQ ID NO:106, VL SEQ ID NO:107 (antibody, V domains shown)
VH: EVQLLESGGGLVQPGGSLRLSCAASGFTFSNYGMSWVRQTPGKGLEWVATIGSGGHYTYYPDSVKGRFTISRDNAKNTLYLQMNSLRAEDTAVYYCARQAPLWDCSDYWGQGTLLTVSS
VL: DVVMTQSPLSLPVTLGQPASISCRSSQTIVHSDGTTYLEWYLQKPGQSPRLLIYKVSNRFSGVPDRFSGSGSGTDFTLKISRVEAEDVGVYYCFQGSHVPPTFGQGTKLEIK
modifications: humanized variable heavy chain murine monoclonal antibody 29 H1; humanized variable light chain murine monoclonal antibody 29 H1

Experiments:
[1] = target: T1, 15-mer, overlapping peptides covering the entire human PDGF-C molecule (Homo sapiens, UniProt Q9NRA1); assay: Epitope mapping ELISA on 15-mer overlapping peptides; format: binding; details: peptide coated 10 μg/mL; antibody 1 μg/mL
T1 construct: host or cells: chemical synthesis
Experimental: The binding of anti-PDGF-C antibodies to 15-mer, overlapping peptides covering the entire human PDGF-C molecule was assessed by ELISA. Antibodies included in this analysis are the five antibodies potently inhibiting activation of PDGF-Rα by PDGF-C, i.e. monoclonal antibodies 2D3, 5A2, 5H7, 16B1 and 29H1. Further included are two antibodies capable of binding to PDGF-C, but not or very poorly inhibiting activation of PDGF-Rα by PDGF-C, i.e. monoclonal antibodies 12E5 (IgG1) and 19F12 (IgG2b) (see Example 4). […] For all antibodies, it was confirmed that they bind to human PDGF-C and binding to full-length human PDGF-C was for all antibodies tested more efficient than binding to any of the peptides identified as described hereafter.
The indicated peptides where synthesized in an N-terminally biotinylated form and coated onto a neutravidin plate (Thermo Scientific, Cat. 15127) at a concentration of 10 μg/mL. The antibodies listed in the table were incubated in each well at a concentration of 1 μg/mL and, following washing, were then detected in a standard ELISA format using an appropriate, HRP-labeled secondary antibody (goat anti-mouse IgG-HRP for all antibodies except sc-80290, and goat anti-rat IgG-HRP for sc-80290). Each antibody was tested at least twice, and up to 4 times. A “+” in the table indicate that a signal to background >3 was found and confirmed at least once. The background signal was measured in the absence of peptide using both the primary and the secondary antibodies. Antibodies sc-80290 and MAB1560 were tested only against peptides 42-63 since this represents the fraction of the protein that was used as an immunogen.

glioblastoma tumor, U118 = assay: Antitumor effect against U118 glioblastoma xenograft; format: in vivo
Experimental: For the evaluation of anti-tumor activity of the antibodies, animals were weighed and tumors measured 2 times weekly using a caliper. Tumor weights were calculated using the formula mass (mg)=[length (mm)×width (mm)^2]/2. Antitumor activity evaluation was done at the single dose of 20 mg/kg. A dosage producing a 20% body weight loss (bwl) or 10% or more drug deaths, was considered an excessively toxic dosage. Animal body weights included the tumor weights. The primary efficacy end point is the tumor growth inhibition (% TGI). Changes in tumor volume for each treated (T) and control (C) are calculated for each tumor by subtracting the tumor volume on the day of first treatment (staging day) from the tumor volume on the specified observation day. The median ΔT is calculated for the treated group and the median ΔC is calculated for the control group. Then the ratio ΔT/ΔC is calculated and expressed as a percentage of TGI: ΔT=Tt−T0 ΔC=Ct−C0 % TGI=[1−(median(Tt−T0)/median(Ct−C0)]*100
The antitumor effect of 29H1, 5A2 and 16B1 was evaluated against a measurable glioblastoma tumor, U118, which express both PDGF-C and its receptor, PDGFRa, S.C. implanted in female SCID Beige mice. Control group was treated with PBS alone. The antibodies were administered by an intraperitoneal (IP) injection, and treatment started on day 28 post-tumor implantation and was performed twice a week.

[2] = target: T2, PDGFRα activation by human PDGF-C (Homo sapiens, UniProt Q9NRA1); assay: PathHunter PDGFRα receptor tyrosine kinase assay in U2OS PDGFRα PLCG1 cells; format: cell-based
T2 construct: the growth factor domain of PDGF-C (amino acids 235-345 of human PDGF-C); purchased R&D Systems 1687-CC/CF; host or cells: ligand added to U2OS PDGFRα PLCG1 cells (DiscoveRx, assay 93-0823C3) that express the transfected receptor
From the text: To evaluate the inhibitory activity of anti-human PDGF-C antibodies on PDGFRα activation by human PDGF-C, the PathHunter® receptor tyrosine kinase assay for PDGFRα (93-0823C3) from DiscoveRx® was used. […] A small complementing fragment of β-gal, the Prolink™ tag (PK) has been fused recombinantly to the intracellular C-terminus of the receptor tyrosine kinase PDGFRα. The larger portion of β-gal, termed EA for enzyme acceptor, is co-expressed with an SH2 (Src Homology 2) phosphotyrosine binding domain. Ligand-induced activation of the receptor results in dimerization and intra-cellular cross-phosphorylation of the receptor. Subsequently, the SH2 domain specifically binds the phosphorylated receptor resulting in the complementation of the two β-gal fragments PK and EA, and formation of a functional β-gal enzyme. Following addition of a β-gal substrate, an easily detectable chemiluminescent signal is produced which is directly correlated to receptor activation. The LumiLITE™ microplate reader is fully compatible with all EFC-based assays of DiscoveRx® and is therefore used.
For the PathHunter® PDGFRα, assay, U2OS PDGFRα, PLCG1 (phospholipase Cγ as the source of the SH2 domain) cells from DiscoveRx® were used. Frozen cells were stored in liquid nitrogen. Upon thawing, cells were resuspended in pre-warmed thawing medium (i.e. culture medium without the selection antibiotics Geneticin and Hygromycin B). After 48 hours of culture in a 5% CO2 incubator at 37° C., thawing medium was replaced by culture medium (MEM Eagle 1× (30-2003 from Invitrogen), 10% fetal bovine serum (SH30071.03 from Perbio Science), 1× Penicillin-Streptomycin-Glutamine (10378-016 from Invitrogen), 250 μg/ml Hygromycin B (10687-010 from Invitrogen), 500 μg/ml Geneticin (10131-035 from Invitrogen)). Once confluence was reached, cells were passaged with a ⅓ dilution every 2-3 days using Accutase (L11-007 from PAA). Cells were maintained in a non-confluent state during routine culture.
In the PathHunter® PDGFRα, assay, the U2OS PDGFRα, PLCG1 cells from DiscoveRx® cultured up to 10 passages were used. Cells were seeded at 20.000 cells in 100 μl per well in 96-well white culture-treated microplates with clear bottom (3610 from Corning). The PathHunter® Cell Plating 16 Reagent (93-0563R16 from DiscoveRx®) was employed as seeding medium. Following 24 hours of culture in 5% CO2 at 37° C., 25 μl of a 5-fold concentrated agonist solution in Cell Plating 16 Reagent was used per well to stimulate the cells. Recombinant human PDGF-C from R&D Systems (1687-CC/CF; Va1235-Gly345) was applied as agonist. After 3 hours incubation at room temperature, 60 μl of PathHunter® detection reagent (93-0001 from DiscoveRx®; 1 part Galacton Star® Substrate, 5 parts Emerald II™ Solution, and 19 parts of PathHunter® Cell Assay Buffer) was added. Cells were placed at room temperature and in the dark for another hour before luminescence was measured with the LumiLITE™ microplate reader. With GraphPad Prism® software, a non-linear regression analysis was performed using the obtained luminescent values in order to generate a sigmoidal agonist dose-response curve with variable slope. The EC50 (i.e. half maximal effective concentration) and EC80 value (i.e. the effective concentration that leads to 80% of the maximal response) for human PDGF-C was calculated.
To evaluate the inhibitory activity of anti-human PDGF-C antibodies on PDGFRα, activation by human PDGF-C, equal volumes of […] concentrated solutions of anti-human PDGF-C antibodies and the EC80 of human PDGF-C, prepared in Cell Plating 16 Reagent, were mixed and the assay was performed as described above. As positive controls, an anti-human PDGF-C polyclonal goat IgG antibody (AF1560 from R&D Systems) and recombinant human PDGFRα, Fc chimera (6765-PR from R&D Systems) were employed. […]

PDGF-C = target: T3, PDGF-C (Homo sapiens, UniProt Q9NRA1); assay: Surface Plasmon Resonance affinity of anti-PDGF-C antibodies for PDGF-C (Biacore 3000); format: binding; details: humanized antibodies; as in Example 3
T3 construct: the growth factor domain of PDGF-C (amino acids 235-345 of human PDGF-C); purchased R&D Systems 1687-CC/CF
Experimental: The different antibodies were each separately coated to a CM5 chip at a density of 1680 RU using standard amine chemistry. Different concentrations (200, 175, 150, 125, 100, 75, 50, 25, 12.5, 6.25, 3.125 & 0 nM) of PDGF-C (R&D Systems, Cat. 1687-CC/CF) were injected over the coated antibody for 5 min, then buffer was flowed for 10 min to monitor the dissociation of the captured antigen. The surface was regeneration between each run with a single injection of glycine-HCl, pH 2.5. Affinities were obtained by analyzing the sensorgrams with the help of the BIAevaluation 4.1 software assuming a 1:1 interaction. The experiment was performed with a Biacore 3000 instrument.
The affinity of the above-listed exemplary humanized anti-PDGF-C antibodies for PDGF-C was analysed (as in Example 3) and the humanized antibodies were subsequently assessed in the in vitro bioassay described in Example 4.

T2 sequence (Q9NRA1 235-345): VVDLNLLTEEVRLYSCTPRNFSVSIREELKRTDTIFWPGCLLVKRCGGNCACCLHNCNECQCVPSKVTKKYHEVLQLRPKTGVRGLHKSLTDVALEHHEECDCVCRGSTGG
T3 sequence (Q9NRA1 235-345): as above

Molecule	binding to peptide No 58 (SEQ ID NO: 96) VLQLRPKTGVRGLHK [1]	tolerability / body weight loss (glioblastoma tumor, U118; 20 mg/kg IP twice a week)	TGI (%) Day 53 (glioblastoma tumor, U118; 20 mg/kg IP twice a week from day 28, day 53 post-tumor implantation) [%]	TGI (%) Day 56 (glioblastoma tumor, U118; 20 mg/kg IP twice a week from day 28, day 56 post-tumor implantation) [%]	TGI (%) Day 60 (glioblastoma tumor, U118; 20 mg/kg IP twice a week from day 28, day 60 post-tumor implantation) [%]	TGI (%) Day 63 (glioblastoma tumor, U118; 20 mg/kg IP twice a week from day 28, day 63 post-tumor implantation) [%]	TGI (%) Day 67 (glioblastoma tumor, U118; 20 mg/kg IP twice a week from day 28, day 67 post-tumor implantation) [%]	IC50 ([2]; Table 5 first IC50 column, PDGF-C at EC80, * average of 3 measurements) [nM]	IC50 ([2]; Table 5 second IC50 column (separate experiment), PDGF-C at EC80) [nM]	IC50 ([2]; Table 5 third IC50 column (separate experiment), PDGF-C at EC80) [nM]	Kd (PDGF-C) [nM]	IC50 ([2]; humanized antibodies, * average of 3 measurements) [nM]
B1	+ (A “+” in the table indicate that a signal to background >3 was found and confirmed at least once)	well-tolerated with no tumor body weight loss	39.4	53.0	53.8	42.8	50.0	3.45	0.87	0.24		
B2											0.7	8.24
